Results reported in US20120083036A1, “POLYSACCHARIDE TRANSFERASE” (ADELAIDE RESEARCH AND INNOVATION PTY LTD, priority 2006, published 2012).
Entries after “also recorded” stand apart in the source; their conditions may differ. Like-named read-outs stand apart in the source and are kept apart here.

How the values were obtained:
HvXET5 [1] = biological target: T1, HvXET5 (Hordeum vulgare, UniProt P93668); assay: pH optimum and enzyme stability of HvXET5; type: biochemical, barley (Hordeum vulgare L., cv. Clipper)
Protocol: The effect of pH on the activity of HvXET5 was determined by incubating 1 nM HvXET5 at 30° C. for 60 min in 50 mM citric acid/100 mM sodium dihydrophosphate (McIlvaine) buffers, pH 4.0-8.5 in the presence of 0.02% (w/v) BSA. […] The thermal stability of HvXET5 was determined after 15 min incubation at 0-70° C. The freeze/thaw stability of HvXET5 at 1 nM concentration was determined after three cycles of freezing (−80° C.) and thawing (4° C.), each of 3 min duration. Activity was subsequently measured at 30° C. in 100 mM ammonium acetate buffer, pH 6, containing 5 mM calcium chloride, without and with the addition of 10% (v/v) glycerol. Enzyme activity was determined radiometrically as specified above, and expressed as % activity relative to maximal activity. Assays were performed in triplicate and standard errors of 8-14% were observed.

HvXET5 [2] = biological target: T1, HvXET5; conditions: 1 nM HvXET5, pH 6
Protocol: The effect of Ca^2+ (as calcium chloride) and Mg^2+ (as magnesium sulfate), both in 0-15 mM concentration ranges, and of EDTA in a 0-20 mM concentration range, were determined by incubating 1 nM HvXET5 in 100 mM succinate buffer, pH 6. Enzyme activities were determined radiometrically as specified above, in triplicate and with a standard error of 8-10%.

HvXET5 [3] = biological target: T1, HvXET5; assay: Radiometric activity assay of HvXET5 with TXG and [3H]-labelled XXXGol; type: biochemical, barley (Hordeum vulgare L., cv. Clipper); conditions: purified enzyme; 30° C., pH 6.0, 0.3% (w/v) TXG
Protocol: The activity of HvXET5 during enzyme purification was determined radiometrically at 30° C. in 100 mM succinate or ammonium acetate buffers, pH 6.0, containing 5 mM calcium chloride, 0.3% (w/v) TXG and [^3H]-labelled xyloglucan-derived saccharide heptaitol (XXXGol, specific radioactivity 83 MBq·μmol^−1) (Fry, et al., Biochem. J. 282, 821-828, 1992) with approximately 30,000 dpm per reaction mixture. The radioactivity incorporated in reaction products was counted on 2×1 cm Whatman chromatography 3MM paper strips in plastic vials and using LSC6500 Scintillation counter (Beckman, Fullerton, USA) with approximately 48% efficiency for tritium, using EcoLume scintillation fluid, and with 70% quenching. Enzyme activity of HvXET5 during purification is expressed in katals, where 1 kat represents 1 mol of product formed per s; specific activity is expressed in pkat·mg^−1 protein.

[4] = substrate: OC[C@@H](O)[C@@H](O[C@@H]1O[C@H](CO[C@H]2OC[C@@H](O)[C@H](O)[C@H]2O)[C@@H](O[C@@H]2O[C@H](CO[C@H]3OC[C@@H](O)[C@H](O)[C@H]3O)[C@@H](O[C@@H]3O[C@H](CO[C@H]4OC[C@@H](O)[C@H](O)[C@H]4O)[C@@H](O)[C@H](O)[C@H]3O)[C@H](O)[C@H]2O)[C@H](O)[C@H]1O)[C@H](O)[C@@H](O)CO; assay: Km and kcat constants of HvXET5; type: biochemical, barley (Hordeum vulgare L., cv. Clipper); conditions: other: acceptor substrate
[5] = concentrations between 5 and 15 mM

Molecule: OCC(O)CO [glycerol]
- Effect on HvXET activity after freeze-thawing cycles (HvXET5 [1]; 10% (v/v) addition): no effect

Molecule: O=S(=O)([O-])[O-].[Mg+2] [Mg^2+, magnesium sulfate]
- Inhibition of HvXET5 activity (HvXET5 [2]; [5]): 3-4%

Molecule: [Ca+2].[Cl-].[Cl-] [Ca^2+, calcium chloride]
- Stimulation of HvXET5 activity (HvXET5 [2]; [5]): 7-8%

Molecule: ethylenediamine tetraacetic (disodium salt, dihydrate) [EDTA]
- Inhibition of HvXET5 activity (HvXET5 [2]; 2-20 mM concentration ranges): approximately 30%

B1: HvXET5: barley xyloglucan xyloglucosyl transferase (XET isoenzyme) purified from extracts of 7-day-old barley seedlings (protein)
chain: MKATAGALLAVVATVLLRGIAAAPPRKPVDVPFEKNYVPTWAEDHIHYVNGGREVQLSLDKTTGTGFQTRGSYLFGHFSMHIKLVGGDSAGTVTAFYLSSQNSEHDEIDFEFLGNRTGQPYILQTNVFSGGKGDREQRIYLWFDPTKDYHSYSVLWNLYMIAFFVDDTPIRVFKNSKDLGVRYPFDQPMKLYSSLWNADDWATRGGREKTDWSKAPFVASYRGFHVDGCEASAEAKLCATQGARWWDQPEFQDLDAAQYRRLAWVRKEHTIYNYCTDRERYAAMSPECKRDRDV
modifications: Hordeum vulgare
notes: barley xyloglucan xyloglucosyl transferase (XET isoenzyme) purified from extracts of 7-day-old barley seedlings
- Specific activity (HvXET5 [3]): 3,630 pkat·mg^−1
- Activity at 0° C. relative to activity observed at 30° C. (HvXET5 [1]; 0° C.): approximately 40%
- pH optimum (HvXET5 [1]; 30° C., McIlvaine buffers pH 4.0-8.5): 6.0
- Freeze/thaw stability (HvXET5 [1]; several freeze-thaw cycles): did not lose activity
- Storage stability (retention of activity) (HvXET5 [1]; stored at −20° C.): retained its activity for at least a year; also recorded: remained more or less constant for at least a year
- Effect of buffer ionic strength on activity (HvXET5 [1]; succinate, ammonium acetate or sodium phosphate buffers, each at 50-200 mM): unaffected

B2: HvXET5 (Hordeum vulgare) (protein)
chain: APPRKPVDVPFEKNYVPTWAEDHIHYVNGGREVQLSLDKTTGTGFQTRGSYLFGHFSMHIKLVGGDSAGTVTAFYLSSQNSEHDEIDFEFLGNRTGQPYILQTNVFSGGKGDREQRIYLWFDPTKDYHSYSVLWNLYMIAFFVDDTPIRVFKNSKDLGVRYPFDQPMKLYSSLWNADDWATRGGREKTDWSKAPFVASYRGFHVDGCEASAEAKLCATQGARWWDQPEFQDLDAAQYRRLAWVRKEHTIYNYCTDRERYAAMSPECKRDRDV
- Km [4]: 69·10^−6 M
